Results reported in publication PMC3516755.

Each substance was assayed against rGlu^1-hPg[S741A] (human) (assay: SPR).
rSK_(AP53) (natural protein) showed a Kd of 321 nM and a koff of 0.00246 s⁻¹.
rSK_(NS53) (natural protein) showed a koff of 0.00616 s⁻¹ and a kon of 1.18e+06 M⁻¹ s⁻¹.
rSK_(NS88.2) (natural protein) was tested, and the Kd was 202 nM, the koff was 0.00314 s⁻¹ and the kon was 15500 M⁻¹ s⁻¹.
rSK_(NS210) (natural protein) showed a koff of 0.00737 s⁻¹ and a kon of 302000 M⁻¹ s⁻¹.
For rSK_(NS223) (natural protein), the Kd was 255 nM and the koff was 0.00178 s⁻¹.
Work on rSK_(NS455) (natural protein) yielded a Kd of 232 nM, a koff of 0.00306 s⁻¹ and a kon of 13200 M⁻¹ s⁻¹.
rSK_(NS931) (natural protein) showed a koff of 0.00467 s⁻¹ and a kon of 375000 M⁻¹ s⁻¹.
For rSK_(NZ131) (natural protein), the koff was 0.0087 s⁻¹ and the kon was 1.02e+06 M⁻¹ s⁻¹.
